Reference: patent publication US20260049134A1 (UNIVERSITY OF FLORIDA RESEARCH FOUNDATION, published 2026)

T1: GARS, endogenous in H929 multiple myeloma cells (human, UniProt P41250 37-739, limits assumed)
T1 construct: Native protein pulled down from H929 lysates; also called Glycyl-tRNA synthetase; GlyRS
T1 sequence: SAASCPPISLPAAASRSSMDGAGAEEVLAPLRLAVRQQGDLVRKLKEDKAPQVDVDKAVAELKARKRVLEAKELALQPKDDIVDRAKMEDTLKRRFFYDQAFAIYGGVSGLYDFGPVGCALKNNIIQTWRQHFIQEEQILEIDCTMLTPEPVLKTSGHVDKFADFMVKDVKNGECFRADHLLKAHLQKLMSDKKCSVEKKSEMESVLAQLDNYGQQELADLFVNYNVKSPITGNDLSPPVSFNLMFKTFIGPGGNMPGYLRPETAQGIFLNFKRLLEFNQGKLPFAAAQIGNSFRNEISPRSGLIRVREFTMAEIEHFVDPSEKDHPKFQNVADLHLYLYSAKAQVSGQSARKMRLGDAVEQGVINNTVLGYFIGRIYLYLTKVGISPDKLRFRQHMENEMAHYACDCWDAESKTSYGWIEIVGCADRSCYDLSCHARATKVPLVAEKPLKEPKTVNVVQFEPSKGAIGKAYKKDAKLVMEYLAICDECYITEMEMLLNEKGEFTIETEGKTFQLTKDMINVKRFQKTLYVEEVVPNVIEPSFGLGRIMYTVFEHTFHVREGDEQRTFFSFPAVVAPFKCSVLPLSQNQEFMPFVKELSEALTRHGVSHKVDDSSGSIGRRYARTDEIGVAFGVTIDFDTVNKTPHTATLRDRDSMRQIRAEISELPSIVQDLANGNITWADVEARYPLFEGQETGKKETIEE

T2: ANXA1
T2 construct: also called ANXA1-His (R&D Systems); not shown: His tag
T2 chain: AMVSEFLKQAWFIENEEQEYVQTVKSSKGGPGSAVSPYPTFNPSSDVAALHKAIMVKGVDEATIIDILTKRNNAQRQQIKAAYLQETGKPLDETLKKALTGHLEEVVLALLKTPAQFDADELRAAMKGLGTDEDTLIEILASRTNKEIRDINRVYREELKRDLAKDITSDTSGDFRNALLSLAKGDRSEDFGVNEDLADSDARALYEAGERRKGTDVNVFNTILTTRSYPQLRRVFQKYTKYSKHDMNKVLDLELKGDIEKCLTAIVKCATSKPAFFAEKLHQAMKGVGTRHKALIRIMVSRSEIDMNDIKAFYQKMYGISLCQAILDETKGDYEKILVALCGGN

T3: IGSF11
T3 construct: also called IGSF11-Fc (R&D Systems)
T3 chain: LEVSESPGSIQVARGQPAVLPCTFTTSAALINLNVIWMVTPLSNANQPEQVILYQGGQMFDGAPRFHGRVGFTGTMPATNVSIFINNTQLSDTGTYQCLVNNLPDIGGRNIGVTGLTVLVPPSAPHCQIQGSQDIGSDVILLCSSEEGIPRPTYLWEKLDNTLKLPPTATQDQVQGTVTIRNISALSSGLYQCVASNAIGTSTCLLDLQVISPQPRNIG

T4: DCC
T4 construct: also called DCC-His (R&D Systems)
T4 chain: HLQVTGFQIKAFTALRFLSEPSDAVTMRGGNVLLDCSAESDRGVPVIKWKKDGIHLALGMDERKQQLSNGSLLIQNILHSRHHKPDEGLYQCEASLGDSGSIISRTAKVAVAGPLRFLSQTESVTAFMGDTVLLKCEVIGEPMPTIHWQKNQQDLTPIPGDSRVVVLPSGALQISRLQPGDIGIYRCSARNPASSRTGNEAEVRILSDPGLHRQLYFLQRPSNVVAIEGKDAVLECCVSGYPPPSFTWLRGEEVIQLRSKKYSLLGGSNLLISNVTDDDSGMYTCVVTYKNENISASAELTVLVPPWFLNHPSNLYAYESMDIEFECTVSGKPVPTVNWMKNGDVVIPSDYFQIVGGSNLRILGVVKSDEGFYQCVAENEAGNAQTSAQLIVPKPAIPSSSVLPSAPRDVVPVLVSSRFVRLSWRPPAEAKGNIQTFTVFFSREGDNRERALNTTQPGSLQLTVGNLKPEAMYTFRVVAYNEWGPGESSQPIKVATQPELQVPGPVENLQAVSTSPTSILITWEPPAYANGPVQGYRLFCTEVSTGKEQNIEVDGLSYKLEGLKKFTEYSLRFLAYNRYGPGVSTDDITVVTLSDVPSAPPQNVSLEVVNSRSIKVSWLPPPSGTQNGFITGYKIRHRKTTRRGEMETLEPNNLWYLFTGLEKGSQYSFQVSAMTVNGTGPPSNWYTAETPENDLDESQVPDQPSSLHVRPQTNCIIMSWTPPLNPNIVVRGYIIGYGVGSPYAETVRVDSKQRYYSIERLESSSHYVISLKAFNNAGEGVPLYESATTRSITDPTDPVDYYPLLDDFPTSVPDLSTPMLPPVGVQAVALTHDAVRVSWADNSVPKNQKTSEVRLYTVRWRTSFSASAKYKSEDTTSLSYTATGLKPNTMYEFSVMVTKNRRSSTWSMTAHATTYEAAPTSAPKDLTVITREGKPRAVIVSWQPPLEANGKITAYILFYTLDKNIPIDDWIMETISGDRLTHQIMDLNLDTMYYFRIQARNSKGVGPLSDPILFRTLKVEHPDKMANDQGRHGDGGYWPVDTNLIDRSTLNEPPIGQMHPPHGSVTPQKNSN


What was measured:
[1] = target: T1, GARS, endogenous in H929 multiple …; experiment: flow cytometry, H929 + CDH18 siRNA; None 0.19; surface target GARS putative
ANXA1 = target: T2, ANXA1; experiment: ELISA on coated protein
Protocol: (§1) Recombinant purified ECDs (50-150 ng) of each putative target protein were coated, incubated with 150 ng of the indicated primary antibody, and binding was detected using a peroxidase-conjugated anti-human Fab secondary antibody. Heatmap represents averages of technical triplicates. (8B) Target validation via siRNA knockdown. H929 cells were transfected with siRNA pools targeting the putative antibody targets ICAM1, CADM1, and PTPRG. Cells were then subjected to cognate IgG binding analysis via flow cytometry. (NT, non-targeting siRNA).
(§2) ELISA ELISA was conducted as described previously. Briefly, 50-150 ng of antigen was coated overnight in half-area 96-well plates at 4° C., blocked with 3% BSA at 37° C. for 1 h, and 150 ng of chimeric rabbit/human IgG1 was added, incubating for 2 h at 37° C. […] After incubating at 37° C. for 15 min-1 h (depending on intensity of controls), data were acquired using a SpectraMax M5 plate reader (Molecular Devices).

IGSF11 = target: T3, IGSF11; experiment: ELISA on coated protein
Protocol: as §1, §2

DCC = target: T4, DCC; experiment: ELISA on coated protein
Protocol: as §1, §2

Binder	Cells stained (%) [1]	binding result (ANXA1)	binding result (IGSF11)	binding result (DCC)
HW-8 chimeric rabbit-human IgG1 LA/LA/PG (antibody, V domains shown, Fc-silenced (L234A/L235A/P329G) IgG1, kappa; Alexa Fluor 647-labeled in single-step flow cytometry; Cluster C-45) VH: QSLEESGGRLVTPGTPLTLTCTVSGFSLSSYAMSWVRQAPGKGLEWIGAISTGGSTTYASWAKGRFTISKTSSTTVDLKMTSLTTEDTATYFCVRHFRLWGPGTLVTISS VL: QVLTQTPSSVSAAVGGTVTIKCQASQSIGSALAWFQQKPGQRPKLLIYRASNLASGVPSRFKGSGSGTEFALTISGVQREDAATYYCLGGAAAVWAFGAGTNVEIKR	99.4%	no binding (tested: 150 ng IgG1 per well)	no binding (tested: 150 ng IgG1 per well)	no binding (tested: 150 ng IgG1 per well)
HW-16 chimeric rabbit-human IgG1 LA/LA/PG (antibody, V domains shown, Fc-silenced (L234A/L235A/P329G) IgG1, kappa; Alexa Fluor 647-labeled in single-step flow cytometry; Cluster C-45) VH: QSLEESGGRLVTPGTPLTLTCTASGFSLSSYAMSWVRQAPGKGLEWIGTMPTGGGTYYASWAKGRFTISKTSTTVDLQITSPTTEDTATYFCAKHWNIWGPGTLVTISS VL: DIVLTQTPSSTSTAVGDTVTINCRASQSIGRNLAWFQQKPGQPPKLLIYRASNLASGVPSRFKGSGSRTQFTLTISGVQREDAATYYCLGSYSSSDTAFGGGTELEILR	98.6%			
HW-28 chimeric rabbit-human IgG1 LA/LA/PG (antibody, V domains shown, Fc-silenced (L234A/L235A/P329G) IgG1, lambda; Alexa Fluor 647-labeled in single-step flow cytometry; Cluster C-45) VH: QKQLVESGGRLVTPGTPLTLTCTASGFSLSSNAMSWVRQAPGEGLQWIGTISSGGSTYYASWAKGRFTISKTSTTVTLKMTSLTTEDTATYFCARGADLHRLWGPGTLVTVSS VL: SFVLTQPASVQVNLGQTVSLTCTGKPLSRSFASWYQQKPGQAPVLVIYRDTSRPSGVPDRFSGSSSGNTATLTISGAQAGDEADYYCATSDGSGSSYQYVFGGGTQLTVTG	99.4%			
HW-45 chimeric rabbit-human IgG1 LA/LA/PG (antibody, V domains shown, Fc-silenced (L234A/L235A/P329G) IgG1, lambda; Alexa Fluor 647-labeled in single-step flow cytometry; Prototype of cluster C-45) VH: QKQLVESGGRLVTPGTPLTLTCTVSGFSLSSYAMGWFRQAPGKGLEWIGIINSYGSTYYASWAKGRFTISKTSTTVDLKITSPTTEDTATYFCGRRIGSARFDPWGPGTLVTVSS VL: SFVLTQPASVQVNLGQTVSLTCTADTLSRSYASWYQQKPGQAPVLLIYRDTRRPSGVPDRFSGSSSGNTATLTISGAQAGDEADYYCATSDGSGSSYRLVFGGGTQLTVTG	99.4%			

The next lines start with results.

Cells stained (%) [1]	Binder	binding result (ANXA1)	binding result (IGSF11)	binding result (DCC)
99.3%	HW-81 chimeric rabbit-human IgG1 LA/LA/PG (antibody, V domains shown, Fc-silenced (L234A/L235A/P329G) IgG1, lambda; Alexa Fluor 647-labeled in single-step flow cytometry; Cluster C-45) VH: QKQLVESGGGLVTPGGTLTLTCTVSGFSLSSNGVSWVRQAPGKGLEYIGLIRSIGSTYYATWAKGRFTISKTSTTVDLKITSPTTEDTATYFCARGGYRNGFKLWGPGTLVTVSS VL: QPVLTQSPSVSAALGASAKLTCTLSSAHKTYYIEWYQQQHPGKAPRYLMQLQSDGSYTKGTGVPDRFSGSSSGADRYLIISSVQAEDEADYICGVIDSAVYVFGGGTQLTVTG			
99.9%	HW-56 chimeric rabbit-human IgG1 LA/LA/PG (antibody, V domains shown, Fc-silenced (L234A/L235A/P329G) IgG1, kappa; Alexa Fluor 647-labeled in single-step flow cytometry; Cluster C-45) VH: QSVKESEGGLFKPTDTLTLTCTASGFTVSTNAVTWVRQAPGNGLEYIGTIGRSGSAYFASWAKRRSTLTRDINLNTVTLKMTSLTAADTATYFCVRGSPGYRTAISIWGPGTLVTISS VL: AVMTQTPSSTSAAVEGTVTINCQASQSISNRLSWFQQKPGQPPKLLIYQASTLASGVPSRFKGSGSGTEFTLTISGVQREDAATYYCLGSYSSSDASFGGGTKLEIKR			
